Data published in US20230257458A1 (SUNSHINE LAKE PHARMA, published 2023).

How the values were obtained:
IL-11 protein [1] = target: T1, IL-11 protein (UniProt P20809 22-199, limits assumed); assay: flow competition: IL-11 + antibody on IL-11R cells; lower = more blocking
T1 construct: also called IL-11 antigen
T1 sequence (looked up): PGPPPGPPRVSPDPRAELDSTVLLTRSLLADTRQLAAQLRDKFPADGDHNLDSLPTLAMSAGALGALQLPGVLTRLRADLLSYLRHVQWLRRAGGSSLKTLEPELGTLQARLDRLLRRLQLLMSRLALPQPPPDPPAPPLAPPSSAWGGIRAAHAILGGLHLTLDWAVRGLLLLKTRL
Excerpt: (§1) Cell lines with high secretion of specific antibody were selected for expanded culture and cryopreservation.

[2] = target: T2, recombinant human protein antigen hu-IL-11-His tag (human, UniProt P20809 22-199); assay: BLI, IL-11 (His tag) on Ni-NTA sensor, antibody as analyte
T2 construct: Expressed in CHO, Ni column and Superdex75; not shown: His tag
T2 sequence (looked up): T1 sequence (looked up)
Procedure: Bio-Layer Interferometry (BLI) was used for binding affinity determination. […] The analytes were diluted in 7 concentration gradients, the binding time was 60 s and the dissociation time was 1000 s. The buffer was 20 mM PBS, 0.15M NaCl, 0.1% BSA, 0.05% Tween 20, pH 7.

[3] = target: T3, recombinant CT-1 (R&D systems, 612-CD-010) (UniProt Q16619 2-201, limits assumed); assay: ELISA, cytokine coated
T3 sequence (looked up): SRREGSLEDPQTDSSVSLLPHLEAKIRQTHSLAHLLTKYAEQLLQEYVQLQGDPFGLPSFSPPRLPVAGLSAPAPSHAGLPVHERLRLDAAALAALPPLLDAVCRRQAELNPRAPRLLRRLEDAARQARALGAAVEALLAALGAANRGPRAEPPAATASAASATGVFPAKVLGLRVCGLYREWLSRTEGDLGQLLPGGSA

[4] = target: T4, recombinant LIF (Peprotech, 300-05) (UniProt P15018 23-202); assay: ELISA, cytokine coated
[5] = target: T5, recombinant CNTF (R&D systems, 257-NT-010) (UniProt P26441 2-200); assay: ELISA, cytokine coated
T5 sequence (looked up): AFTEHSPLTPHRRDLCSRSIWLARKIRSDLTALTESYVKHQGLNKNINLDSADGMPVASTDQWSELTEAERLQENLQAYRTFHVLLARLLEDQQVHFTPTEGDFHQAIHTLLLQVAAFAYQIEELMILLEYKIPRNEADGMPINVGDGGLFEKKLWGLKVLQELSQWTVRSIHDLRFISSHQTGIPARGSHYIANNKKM

[6] = target: T6, recombinant IL-11 (LSBio, LS-G132887-10) (UniProt P20809 22-199); assay: ELISA, cytokine coated
T6 construct: also called IL-11 cytokine
T6 sequence (looked up): T1 sequence (looked up)

[7] = target: T7, recombinant OSM (Genscript-z03132) (UniProt P13725 26-234, limits assumed); assay: ELISA, cytokine coated
T7 sequence (looked up): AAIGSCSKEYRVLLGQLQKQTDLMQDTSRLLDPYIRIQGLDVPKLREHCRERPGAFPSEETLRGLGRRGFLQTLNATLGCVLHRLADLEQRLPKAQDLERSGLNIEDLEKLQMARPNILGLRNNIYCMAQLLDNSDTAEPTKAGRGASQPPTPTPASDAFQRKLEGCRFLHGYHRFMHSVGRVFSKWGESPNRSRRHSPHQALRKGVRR

[8] = target: T8, recombinant IL-31 (Peprotech, 200-31) (UniProt Q6EBC2 24-164); assay: ELISA, cytokine coated
T8 sequence (looked up): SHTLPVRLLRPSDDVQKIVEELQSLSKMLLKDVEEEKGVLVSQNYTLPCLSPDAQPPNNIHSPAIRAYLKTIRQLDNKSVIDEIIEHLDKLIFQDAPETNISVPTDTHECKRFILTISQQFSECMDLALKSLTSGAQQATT

[9] = target: T9, recombinant IL-6 (Sinobiological-10395-HNAE) (UniProt P05231 30-212); assay: ELISA, cytokine coated
[10] = target: T10, recombinant CLC (R&D systems, 962-CL-050) (UniProt Q9UBD9 28-225); assay: ELISA, cytokine coated
T10 sequence (looked up): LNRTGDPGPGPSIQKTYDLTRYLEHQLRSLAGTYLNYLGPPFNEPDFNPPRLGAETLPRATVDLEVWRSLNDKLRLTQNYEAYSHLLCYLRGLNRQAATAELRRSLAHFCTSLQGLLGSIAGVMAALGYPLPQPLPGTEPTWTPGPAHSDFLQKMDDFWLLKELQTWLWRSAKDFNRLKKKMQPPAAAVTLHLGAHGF

[11] = target: T11, recombinant IL-27 (R&D systems, 2526-IL-010) (UniProt Q8NEV9 29-243; Q14213 21-229); assay: ELISA, cytokine coated
T11 sequence (looked up) 1: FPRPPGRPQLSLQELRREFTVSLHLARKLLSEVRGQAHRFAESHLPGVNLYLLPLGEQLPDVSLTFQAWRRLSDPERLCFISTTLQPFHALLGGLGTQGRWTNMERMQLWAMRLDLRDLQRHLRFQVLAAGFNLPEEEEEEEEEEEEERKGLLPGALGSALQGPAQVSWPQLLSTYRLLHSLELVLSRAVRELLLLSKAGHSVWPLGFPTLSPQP
T11 sequence (looked up) 2: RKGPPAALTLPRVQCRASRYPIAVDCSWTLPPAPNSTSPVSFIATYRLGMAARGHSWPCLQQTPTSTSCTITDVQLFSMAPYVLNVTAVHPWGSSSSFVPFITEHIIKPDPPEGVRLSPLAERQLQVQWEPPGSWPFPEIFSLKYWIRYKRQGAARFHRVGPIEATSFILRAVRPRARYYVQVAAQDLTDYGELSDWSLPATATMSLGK

[12] = target: T3, recombinant CT-1 (R&D systems, …); assay: ELISA, cytokine coated; remark: listed apart in the source
[13] = target: T4, recombinant LIF (Peprotech, 300-05); assay: ELISA, cytokine coated; remark: listed apart in the source
[14] = target: T5, recombinant CNTF (R&D systems, …); assay: ELISA, cytokine coated; remark: listed apart in the source
[15] = target: T7, recombinant OSM (Genscript-z03132); assay: ELISA, cytokine coated; remark: listed apart in the source
[16] = target: T8, recombinant IL-31 (Peprotech, 200-31); assay: ELISA, cytokine coated; remark: listed apart in the source
[17] = target: T9, recombinant IL-6 …; assay: ELISA, cytokine coated; remark: listed apart in the source
[18] = target: T10, recombinant CLC (R&D systems, …); assay: ELISA, cytokine coated; remark: listed apart in the source
[19] = target: T11, recombinant IL-27 (R&D systems, …); assay: ELISA, cytokine coated; remark: listed apart in the source
IL-11-Fc protein = target: T12, IL-11-Fc protein (UniProt P20809 22-199, limits assumed); assay: flow competition: IL-11-Fc + antibody gradient on membrane-IL-11R CHO cells; 3-6A4 antibody
T12 construct: also called IL-11 recombinant protein with Fc tag; not shown: Fc tag
T12 sequence (looked up): T1 sequence (looked up)
Excerpt: The secondary antibody used in the detection was a secondary antibody conjugated with a FITC fluorophore (Goat-anti-Fc-FITC) (Abcam, ab98529).

IL-11 protein [20] = target: T1, IL-11 protein; assay: ELISA, monoclonal hybridoma supernatant on IL-11
Excerpt: as §1

T4 sequence (P15018 23-202 limits assumed): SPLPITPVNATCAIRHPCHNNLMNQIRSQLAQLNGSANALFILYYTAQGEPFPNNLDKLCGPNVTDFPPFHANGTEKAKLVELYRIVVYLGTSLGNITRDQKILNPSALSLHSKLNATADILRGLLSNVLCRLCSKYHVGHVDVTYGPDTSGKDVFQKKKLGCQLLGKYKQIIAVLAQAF

B1: 3-6A4 (antibody, human IgG1, kappa, V domains shown)
VH: QIQLVQSGPELKKPGETVKISCKASGYTFTTNGINWVKQAAGKGLKWMGWINTNTGEPTNAEELKGRFAFSLETSASTAYLQINNLKNEDAAIYFCAREGAFGLDYWGQGTSVTVSS
VL: SIVMTQSPKFLLVSAGDRVIITCKASQSVSNDVVWYQQKPGQSPKLLIYYGSHRNTGVPTRFTGSGYGTDFTFTISTVQAEDLAVYFCQQDFFSPWTFGGGTKLEIKR
notes: also called 3-6A4 antibody; 3-6A4 mAb
IL-11 protein [1]
  FITC Mean: 3040
[2]
  Kd: 0.0393 nM
  koff: 4.16e-05 s⁻¹
  kon: 1.06e+06 M⁻¹ s⁻¹
[3]
  OD450 nm: 0.041
[4]
  OD450 nm: 0.084
[5]
  OD450 nm: 0.064
[6]
  OD450 nm: 1.88
[7]
  OD450 nm: 0.102
[8]
  OD450 nm: 0.088
[9]
  OD450 nm: 0.039
[10]
  OD450 nm: 0.042
[11]
  OD450 nm: 0.035
[12]
  binding result: no binding
[13]
  binding result: no binding
[14]
  binding result: no binding
[15]
  binding result: no binding
[16]
  binding result: no binding
[17]
  binding result: no binding
[18]
  binding result: no binding
[19]
  binding result: no binding
IL-11-Fc protein
  IC50: ~7 µg/mL
IL-11 protein [20]
  OD450: 1.58
